Laboratory results: patent publication US20250302974A1, “LECTIN-DRUG CONJUGATES” (UNICHEM LABORATORIES LIMITED, priority 2021, published 2025)

B1: Formula 18: Recombinant lectin of SEQ ID NO 5 conjugated with Tesirine, DAR 1.05 (conjugate)
chain: SYKITVRVYQTNPDAFFHPVEKTVWKYANGGTWTITDDQHVLTMGGSGTSGTLRFHADNGESFTATFGVHNYKRWGDIVTNLAADETGMVINQQYYSQKNREEARERQLSNYQVKNAKGRNFQIVYTEAEGNDLHANLIIGC
modifications: Tesirine conjugate
B2: SEQ ID NO: 5: recombinant S. rolfsii lectin variant with T1S, C76G and cysteine added at C terminal end (protein)
chain: B1 chain
modifications: C-terminal cysteine added
notes: recombinant S. rolfsii lectin variant with T1S, C76G and cysteine added at C terminal end
B3: Formula 19: Recombinant lectin of SEQ ID NO 2 (via Formula C) conjugated with Tesirine, DAR 1.32 (conjugate)
chain: TYKITVRVYQTNPDAFFHPVEKTVWKYANGGTWTITDDQHVLTMGGSGTSGTLRFHADNGESFTATFGVHNYKRWCDIVTNLAADETGMVINQQYYSQKNREEARERQLSNYQVKNAKGRNFQIVYTEAEGNDLHANLIIG
modifications: Tesirine conjugate via Formula C linker

Columns and labels:
[1] = tested on: human urinary bladder cancer cell line (T-24); experiment: Cytotoxicity assay, cell titer glow luminescence, 72 h; type: cell-based
Description: (§1) T-24 Cell line were cultured in McCoy's 5a Medium Modified supplemented with 10% FBS and the PA-1 Cell line was cultured in EMEM Media supplemented with 10% FBS. The assay was performed by plating 5,000 cells/well and incubated at 37° C. overnight. […] Each concentration was added in triplicate and media-only wells used as a control. After incubation for 72 h cell titer glow (Promega) reagent (50 μL) was added to each well and the plates shaken for 5 mins and the luminescence was recorded. Percent viability was determined by dividing luminescence of the treated well by the non-treated well and multiplying by 100. Data was analysed using non-linear regression with a logarithmic scale.
(§2) 5,000 cells/well were plated and incubated at 37° C. overnight. Conjugates/vehicle control dilutions were made in respective media and added to cells. Volume added: 50 uL to each well. Starting treatment concentration was 1 uM for Conjugate of formula 16 and 18, and control SEQ ID NO: 5 alone and 10% for vehicle control (1×PBS with 20% DMA) and then diluted 10-fold down for a total of 11 treatment dilutions. Each concentration was analysed in triplicates. Media-only wells was used as a control to calculate percent viability. Cell titer glow reagent (volume: 50 uL) was added to each well, the plate was shaken for 5 mins and the luminescence was recorded. Drug Treatment Time: 72 hours. Percent viability was calculated by dividing the luminescence signal obtained for each treated well by the untreated well (media-only control) and multiplying by 100.

[2] = tested on: ovarian cancer cell line (PA-1); experiment: as above; type: cell-based; settings: for activity against PA-1 cell lines (in words): IC50 values in nanomoles
Description: as §1, §2

Row | Molecule | IC50 ([1]; 72 h) | activity against T-24 cell lines (in words) ([1]; IC50 values in nanomoles) | IC50 ([2]; 72 h) | activity against PA-1 cell lines (in words) [2] | cytotoxic effects below 10 μM concentration ([1]; below 10 μM) | IC50 values, PA-1 Cell line ([2]; 72 h) | cytotoxic effects below 10 μM concentration ([2]; below 10 μM) | IC50 ([2]; 72 h, listed as formula 19)
1 | B1 | 19.9 nM | potent activity | 1.04 nM | potent activity |  |  |  | 
2 | B2 |  |  |  |  | does not exhibit major cytotoxic effects | 16 µg/mL | does not exhibit major cytotoxic effects | 
3 | B3 |  |  | 5.22 nM | potent activity |  |  |  | 5.22 nM
